In patent US10227388B2, “Peptides and combination of peptides for use in immunotherapy against non-small cell lung cancer and other cancers” (immatics biotechnologies GmbH, priority 2015, dated 2019):

What follows are substances tested against HLA-A*02:01 (Homo sapiens, UniProt P04439, D140Y/D185E/D98H/E176V/E277Q/G131W/G231S/I119V/I121R/I166T/I218V/L300P/L318F/N151K/N90K/P208A/P217A/Q86G/Q94H/R138H/R169H/T345S) (assay: MHC binding assay (UV-ligand exchange, ELISA, peptide exchange yield)). Settings: binding of HLA-class I restricted peptides to HLA-A*02:01.
Source text: Candidate peptides for T cell based therapies according to the present invention were further tested for their MHC binding capacity (affinity). The individual peptide-MHC complexes were produced by UV-ligand exchange, where a UV-sensitive peptide is cleaved upon UV-irradiation, and exchanged with the peptide of interest as analyzed. Only peptide candidates that can effectively bind and stabilize the peptide-receptive MHC molecules prevent dissociation of the MHC complexes. To determine the yield of the exchange reaction, an ELISA was performed based on the detection of the light chain ([…]) of stabilized MHC complexes. The assay was performed as generally described in Rodenko et al. (Rodenko et al., 2006).
96 well MAXISorp plates (NUNC) were coated over night with 2-ug/ml streptavidin in PBS at room temperature, washed 4× and blocked for 1 h at 37° C. in 2% BSA containing blocking buffer. […] Peptide-MHC monomers of the UV-exchange reaction were diluted 100 fold in blocking buffer. Samples were incubated for 1 h at 37° C., washed four times, incubated with 2-ug/ml HRP conjugated anti-β2m for 1 h at 37° C., washed again and detected with TMB solution that is stopped with […]. Absorption was measured at 450 nm. Candidate peptides that show a high exchange yield (preferably higher than 50%, most preferred higher than 75%) are generally preferred for a generation and production of antibodies or fragments thereof, and/or T cell receptors or fragments thereof, as they show sufficient avidity to the MHC molecules and prevent dissociation of the MHC complexes.

| Peptide exchange (MHC class I binding score, peptide exchange yield) | Substance |
| --- | --- |
| ″+++″ (≥50% = +++) | 1 (SLMEPPAVLLL; listed as Homo sapiens) [compound 1] |
| ″++++″ (≥75% = ++++) | 4 (GIMEHITKI; listed as Homo sapiens) [compound 4] |
| ″+++″ (≥50% = +++) | 5 (HLTEVYPEL; listed as Homo sapiens) [compound 5] |
| ″+++″ (≥50% = +++) | 6 (VLVSDGVHSV; listed as Homo sapiens) [compound 6] |
| ″++++″ (≥75% = ++++) | 7 (SLVGLLLYL; listed as Homo sapiens) [compound 7] |
| ″++″ (≥20% = ++) | 9 (GAAKDLPGV; listed as Homo sapiens) [compound 9] |
| ″++++″ (≥75% = ++++) | 10 (FLATFPLAAV; listed as Homo sapiens) [compound 10] |
| ″+++″ (≥50% = +++) | 12 (SLWPDPMEV; listed as Homo sapiens) [compound 12] |
| ″+++″ (≥50% = +++) | 13 (YLMDESLNL; listed as Homo sapiens) [compound 13] |
| ″+++″ (≥50% = +++) | 14 (AAYGGLNEKSFV; listed as Homo sapiens) [compound 14] |
| ″++″ (≥20% = ++) | 15 (VLLTFKIFL; listed as Homo sapiens) [compound 15] |
| ″+++″ (≥50% = +++) | 16 (VLFQGQASL; listed as Homo sapiens) [compound 16] |
| ″+++″ (≥50% = +++) | 17 (GLLPGDRLVSV; listed as Homo sapiens) [compound 17] |
| ″++″ (≥20% = ++) | 18 (YLVAKLVEV; listed as Homo sapiens) [compound 18] |
| ″++++″ (≥75% = ++++) | 19 (FMVDNEAIYDI; listed as Homo sapiens) [compound 19] |
| ″+++″ (≥50% = +++) | 20 (RMIEYFIDV; listed as Homo sapiens) [compound 20] |
| ″++″ (≥20% = ++) | 21 (VLDELDMEL; listed as Homo sapiens) [compound 21] |
| ″+++″ (≥50% = +++) | 22 (IMEENPGIFAV; listed as Homo sapiens) [compound 22] |
| ″+++″ (≥50% = +++) | 23 (VLLDDIFAQL; listed as Homo sapiens) [compound 23] |
| ″++″ (≥20% = ++) | 24 (SLSDGLEEV; listed as Homo sapiens) [compound 24] |
| ″+++″ (≥50% = +++) | 25 (FLPDEPYIKV; listed as Homo sapiens) [compound 25] |
| ″+++″ (≥50% = +++) | 26 (ALLELAEEL; listed as Homo sapiens) [compound 26] |
| ″+++″ (≥50% = +++) | 27 (ILADIVISA; listed as Homo sapiens) [compound 27] |
| ″+++″ (≥50% = +++) | 28 (QLLDETSAITL; listed as Homo sapiens) [compound 28] |
| ″+++″ (≥50% = +++) | 29 (KMLGIPISNILMV; listed as Homo sapiens) [compound 29] |
| ″+++″ (≥50% = +++) | 30 (LILDWVPYI; listed as Homo sapiens) [compound 30] |

| Peptide exchange (MHC class I binding score, peptide exchange yield) | Substance |
| --- | --- |
| ″++″ (≥20% = ++) | 31 (YLAPELFVNV; listed as Homo sapiens) [compound 31] |
| ″++″ (≥20% = ++) | 32 (KLDDLTQDLTV; listed as Homo sapiens) [compound 32] |
| ″++″ (≥20% = ++) | 33 (VLLSLLEKV; listed as Homo sapiens) [compound 33] |
| ″+++″ (≥50% = +++) | 34 (ILVEADSLWVV; listed as Homo sapiens) [compound 34] |
| ″+++″ (≥50% = +++) | 35 (KINDTIYEV; listed as Homo sapiens) [compound 35] |
| ″+++″ (≥50% = +++) | 39 (SVAPNLPAV; listed as Homo sapiens) [compound 39] |
| ″+++″ (≥50% = +++) | 40 (TLLVKVFSV; listed as Homo sapiens) [compound 40] |
| ″+++″ (≥50% = +++) | 41 (SLMPHIPGL; listed as Homo sapiens) [compound 41] |
| ″+++″ (≥50% = +++) | 42 (VLLQKIVSA; listed as Homo sapiens) [compound 42] |
| ″++″ (≥20% = ++) | 43 (VLSSLEINI; listed as Homo sapiens) [compound 43] |
| ″++″ (≥20% = ++) | 44 (ILDPISSGFLL; listed as Homo sapiens) [compound 44] |
| ″+++″ (≥50% = +++) | 45 (SLWQDIPDV; listed as Homo sapiens) [compound 45] |
| ″+++″ (≥50% = +++) | 46 (ILTEENIHL; listed as Homo sapiens) [compound 46] |
| ″++″ (≥20% = ++) | 47 (ILLSVPLLVV; listed as Homo sapiens) [compound 47] |
| ″+++″ (≥50% = +++) | 49 (YLPAVFEEV; listed as Homo sapiens) [compound 49] |
| ″+++″ (≥50% = +++) | 50 (SLSELEALM; listed as Homo sapiens) [compound 50] |
| ″++++″ (≥75% = ++++) | 51 (LLPDLEFYV; listed as Homo sapiens) [compound 51] |
| ″++++″ (≥75% = ++++) | 52 (FLLAHGLGFLL; listed as Homo sapiens) [compound 52] |
| ″++++″ (≥75% = ++++) | 53 (KMIETDILQKV; listed as Homo sapiens) [compound 53] |
| ″+++″ (≥50% = +++) | 54 (SLLEQGKEPWMV; listed as Homo sapiens) [compound 54] |
| ″++++″ (≥75% = ++++) | 55 (SLLDLETLSL; listed as Homo sapiens) [compound 55] |
| ″+++″ (≥50% = +++) | 57 (TLAELQPPVQL; listed as Homo sapiens) [compound 57] |
| ″+++″ (≥50% = +++) | 59 (IMEDIILTL; listed as Homo sapiens) [compound 59] |
| ″++++″ (≥75% = ++++) | 60 (SLTIDGIYYV; listed as Homo sapiens) [compound 60] |
| ″++++″ (≥75% = ++++) | 61 (FLQGYQLHL; listed as Homo sapiens) [compound 61] |
